Source: publication PMC5624926 (2017)
Where two headings read alike, the source gives them in different places.

How the values were obtained:
[1] = target: T1, CD22_(20–687) (human, UniProt P20273 20-687, N-linked glycans; glycoform not stated); assay: BLI
[2] = target: T1, CD22_(20–687); assay: BLI; remark: listed apart in the source

Kd [1] [nM]	Kd [2] [nM]	Binder
1700		epratuzumab Y(L27D)A (antibody, V domains shown) VH: QVQLVQSGAEVKKPGSSVKVSCKASGYTFTSYWLHWVRQAPGQGLEWIGYINPRNDYTEYNQNFKDKATITADESTNTAYMELSSLRSEDTAFYFCARRDITTFYWGQGTTVTVSS VL: DIQLTQSPSSLSASVGDRVTMSCKSSQSVLASANHKNYLAWYQQKPGKAPKLLIYWASTRESGVPSRFSGSGSGTDFTLTISSLQPEDIATYYCHQYLSSWTFGGGTKLEIKR
	120	epratuzumab Fab (Fab, V domains shown) VH: QVQLVQSGAEVKKPGSSVKVSCKASGYTFTSYWLHWVRQAPGQGLEWIGYINPRNDYTEYNQNFKDKATITADESTNTAYMELSSLRSEDTAFYFCARRDITTFYWGQGTTVTVSS VL: DIQLTQSPSSLSASVGDRVTMSCKSSQSVLYSANHKNYLAWYQQKPGKAPKLLIYWASTRESGVPSRFSGSGSGTDFTLTISSLQPEDIATYYCHQYLSSWTFGGGTKLEIK
260		epratuzumab N(H52)A (antibody, V domains shown) VH: QVQLVQSGAEVKKPGSSVKVSCKASGYTFTSYWLHWVRQAPGQGLEWIGYIAPRNDYTEYNQNFKDKATITADESTNTAYMELSSLRSEDTAFYFCARRDITTFYWGQGTTVTVSS VL: DIQLTQSPSSLSASVGDRVTMSCKSSQSVLYSANHKNYLAWYQQKPGKAPKLLIYWASTRESGVPSRFSGSGSGTDFTLTISSLQPEDIATYYCHQYLSSWTFGGGTKLEIKR
